Measurements as given in US20240287172A1 (SCIRHOM, published 2024).
Positions count from the first letter of the chain named.

Target: T1, hiR2-FL-Q437D-T7 (human, UniProt Q6PJF5 1-856)
T1 sequence: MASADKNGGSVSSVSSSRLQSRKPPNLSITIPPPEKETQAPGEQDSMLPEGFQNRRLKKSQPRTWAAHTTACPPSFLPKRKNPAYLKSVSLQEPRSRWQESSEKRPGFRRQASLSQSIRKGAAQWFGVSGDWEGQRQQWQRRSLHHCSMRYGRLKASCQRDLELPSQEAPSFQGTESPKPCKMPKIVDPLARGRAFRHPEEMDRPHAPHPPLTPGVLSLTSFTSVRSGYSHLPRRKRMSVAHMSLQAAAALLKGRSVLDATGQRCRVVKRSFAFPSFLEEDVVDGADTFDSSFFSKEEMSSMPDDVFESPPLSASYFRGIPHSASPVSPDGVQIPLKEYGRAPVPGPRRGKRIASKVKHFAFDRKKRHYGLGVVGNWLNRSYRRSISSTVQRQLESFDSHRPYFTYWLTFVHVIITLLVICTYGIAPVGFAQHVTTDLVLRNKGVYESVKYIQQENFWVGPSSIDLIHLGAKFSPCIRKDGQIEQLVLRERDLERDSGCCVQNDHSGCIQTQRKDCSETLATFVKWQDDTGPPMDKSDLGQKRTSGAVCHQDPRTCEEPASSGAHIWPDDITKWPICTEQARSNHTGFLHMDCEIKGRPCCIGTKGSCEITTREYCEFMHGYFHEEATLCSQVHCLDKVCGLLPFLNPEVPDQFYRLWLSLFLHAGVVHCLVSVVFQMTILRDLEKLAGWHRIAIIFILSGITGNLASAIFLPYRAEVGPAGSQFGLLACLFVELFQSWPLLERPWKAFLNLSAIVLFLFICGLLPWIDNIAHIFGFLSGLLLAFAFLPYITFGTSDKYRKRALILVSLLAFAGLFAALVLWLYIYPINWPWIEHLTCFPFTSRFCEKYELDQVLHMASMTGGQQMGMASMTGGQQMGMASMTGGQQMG
Assay: FACS, MEF-DKO cells, 3 µg/ml
From the text: In brief, immortalized MEF-DKO-hiR2-FL-A431S-T7, MEF-DKO-hiR2-FL-V434E-T7, MEF-DKO-hiR2-FL-T436V-T7, MEF-DKO-hiR2-FL-Q437D-T7, MEF-DKO-hiR2-FL-L438S-T7, MEF-DKO-hiR2-FL-S448N-T7, MEF-DKO-hiR2-FL-I452V-T7, MEF-DKO-hiR2-FL-I464E-T7, MEF-DKO-hiR2-FL-D465A-T7, MEF-DKO-hiR2-FL-I477M-T7, MEF-DKO-hiR2-FL-K479Q-T7, MEF-DKO-hiR2-FL-G481P-T7, MEF-DKO-hiR2-FL-I483V-T7, MEF-DKO-hiR2-FL-E484H-T7, MEF-DKO-hiR2-FL-Q485S-T7, MEF-DKO-hiR2-FL-L486F-T7, MEF-DKO-hiR2-FL-V487I-T7, MEF-DKO-hiR2-FL-R489S-T7, MEF-DKO-hiR2-FL-E490A-T7, MEF-DKO-hiR2-FL-D492E-T7, MEF-DKO-hiR2-FL-L493R-T7, MEF-DKO-hiR2-FL-R495K-T7 and MEF-DKO-hiR2-FL-D496H-T7 cells were harvested with 10 mM EDTA in PBS, washed and resuspended in FACS buffer (PBS, 3% FBS, 0.05% sodium azide), and seeded in Nunc U-bottom 96-well plates (Thermo Fisher Scientific, USA) at approximately 1×10⁵ cells per well. To pellet cells and remove supernatants, the plates were centrifuged at 1,500 rpm and 4° C. for 3 minutes. For primary staining, cells were resuspended in 100 μl per well of either FACS buffer alone (controls) or the purified antibodies 3, 5, 16, 22, 34, 42, 43, 44, 48, and 50 of the invention at 3 μg/ml in FACS buffer and incubated on ice for 1 hour. Afterwards, plates were centrifuged at 1,500 rpm and 4° C. for 3 minutes and washed twice with 200 μl per well of FACS buffer. For secondary staining, cells were spun down and resuspended in 100 μl per well of PE-conjugated goat anti-mouse IgG F(ab′)2 detection fragment (Dianova, Germany) diluted 1:100 in FACS buffer. Protected from light, the cell suspensions were incubated on ice for 1 hour. Plates were then centrifuged at 1,500 rpm and 4° C. for 3 minutes and washed three times with 200 μl per well of FACS buffer. Finally, cells were resuspended in 150 μl per well of FACS buffer and analyzed using a BD Accuri™ C6 Plus flow cytometer (Becton Dickinson, Germany).

B1: antibody 48 (antibody, V domains shown)
VH: QVQLQQSGTELVRPGTSVKVSCKASGYAFTNYLIEWVKQRPGQGLEWIGVINPGSGFTKYNEKFKGKATLTADKSSSTVYMHLSSLTSEDSAVYFCARGLYRAMDYWGQGTSVTVSS
VL: DIQMTQSPASQSASLGESVTITCLASQTIATWLAWYQQKPGKSPQLLIYGATTLADGVPSRFSGGGSGTKFSFKISSLQAEDFVSYYCQQLYSTPYTFGGGTKLEIK
notes: mouse IgG, kappa light chain; also called clone #48; purified antibody 48
In the case of B1, the “loss of binding vs wild type” value is reported as no less than 30%.

B2: antibody 50 (antibody, V domains shown)
VH: B1 VH with T9A, T16A, T30S, V79A, H82Q
VL: B1 VL with A30G, G50A, T52A, T53S, S85N, L91I
notes: mouse IgG, kappa light chain; also called clone #50; purified antibody 50
For B2, the “loss of binding vs wild type” value was no less than 30%.
